Assay [1] deals with human CI-M6PR on K562 cells (human, UniProt P11717 41-2491). The assay can be described thus: cell-based or functional assay.
The target of assay [2] is T1, purified recombinant CI-M6PR (domains 1-9) protein (human, UniProt P11717 41-1365, limits assumed).
T1 construct: domain: domains 1-9; also called human CI-M6PR; wild-type human CI-M6PR
The assay can be described thus: ELISA on human M6PR, Abs 450nm, antibody about 0.0005-1 ug/mL. (In an ELISA, binding on a coated surface is turned into a signal by an enzyme label.)

Assay [3] has as its target T2, Recombinant human M6PR ECD-His (human, UniProt P11717 41-2304).
T2 construct: extracellular domain; also called recombinant His-tagged human M6PR; human M6PR antigen; not shown: His tag
As to the kind of experiment: Octet BLI; mIgG from hybridoma supernatant on anti-mouse biosensor, His-tagged human M6PR analyte. In general terms: In BLI a coated tip is dipped into the sample, and binding shifts an interference pattern.

In assay [4] the target is T1, purified recombinant CI-M6PR (domains …). The assay can be described thus: BLI (GatorPrime), antibody on anti-mouse IgG Fc sensor, CI-M6PR (domains 1-9) in solution, global 1:1 fit.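 Also: human CI-M6PR tested at a range of concentrations against captured antibodies, measured at 30 °C, analyte diluted in PBS carrying Tween-20, BSA and NaN3.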
For assay [5] the target is unchanged. As to the kind of experiment: ELISA on human M6PR, Abs 450nm, antibody about 0.0005-1 ug/mL. This is another data set of the same source.
The target is the same in assay [6]. The description is as above. This is another data set of the same source.
Assay [7] shares this target. The assay is described as above. The source holds these as a separate data set.

Read-outs that look alike come from different tables or passages of the source.

B1: 18G4 (antibody, V domains shown)
VH: EVKLMESGGGLVQPGASLRLSCAASGFTFTDYYMSWVRQPPGKAPEWLALIRNKANGYTTEYNASVKGRFTISRDNSQNILYLQMNTLRTEDSATYYCVRGGFAYWGQGTLVTVSA
VL: QAVVIQESALTTSPGETVTLTCRSSTGAVTTSHYAIWVQEKPDHLFTGLIGGTNNRVPGVPARFSGSLIADKAALTITGAQTEDEAIYFCALWYTNQFIFGSGTKVTVL
notes: also called Clone # 45
As usually defined, the EC50 (read off the curve) is the concentration that produces a half-maximal response. The Kd is the free concentration of one partner at which half of the binding sites on the other are occupied at equilibrium, for simple one-to-one binding. A word on the koff: it is the first-order rate constant of dissociation. The kon is the rate constant with which the complex forms. With B1, in assay [1], the “Uptake pHrodo (MFI)” value was determined as 10400 MFI. Also, in assay [2], the “EC50 (read off the curve)” value was about 0.01 µg/mL. Also, the equilibrium dissociation constant (Kd) in assay [3] was 8.74 nM. In assay [4], the Kd stood at 13 nM, the koff was determined as 0.000616 s⁻¹ and the on-rate constant (kon) is 47200 M⁻¹ s⁻¹.

B2: 17F11 (antibody, V domains shown)
VH: EVQLQQSGPELVKPGASVKMSCKASGYTFTDYNMHWVKQSHGKSLEWIGYINPNNGGTNYNQKFQGKATLTVNKSSRTAYMELRSLTSEDSAVYYCVRFYYGSRYYAMDYWGQGTSVTVSS
VL: DIVMTQSPATLSVTPGDRVSLSCRASQSISDYLHWYQQKSHESPRLLIKYASQSISGIPSRFSGSGSGSDFTLSINSVEPEDVGVYYCQNGHSFPYTFGGGTKLEIK
notes: also called Clone # 55
Consider B2, for which the “Uptake pHrodo (MFI)” value in assay [1] was 12500 MFI. The “EC50 (read off the curve)” value in assay [5] is about 0.01 µg/mL. The Kd in assay [3] was 10.5 nM. In assay [4], the Kd is 10 nM, the koff is 0.000454 s⁻¹ and the kon amounted to 45300 M⁻¹ s⁻¹.

B3: 03C7 (antibody, V domains shown)
VH: QVQLQQSGPELVKPGASVKISCKASGYSFTSYYIHWVKQRPGQGLEWIGWIYPGSGNTKYNEKFKGKATLTADTSSSTAYMQLSSLTSEDSAVYYCARMGSSYWYFDVWGTGTTVTVSS
VL: ENVLTQSPAIMAASLGQKVTMTCSASSSVSSSYLHWYQQKSGASPKPLIHRTSNLASGVPARFSGSGSGTSYSLTISSVEAEDDATYYCQQWSGYPLTFGAGTKLELK
notes: also called Clone # 85
Consider B3, for which, in assay [1], the “Uptake pHrodo (MFI)” value stood at 41700 MFI. In addition, in assay [6], the “EC50 (read off the curve)” value was about 0.01 µg/mL. Moreover, the Kd in assay [3] was determined as 17.5 nM. Also, in assay [4], the Kd is 24.9 nM, the dissociation rate constant (koff) was found to be 0.0154 s⁻¹ and the kon was found to be 618000 M⁻¹ s⁻¹.

B4: 12D5 (antibody, V domains shown)
VH: QVQLQQPGAELVKPGASVKLSCKASGYTFTNYWMHWVKQRPGQGLEWIGMIHPNSGSTNYNEKFKSKATLTVDKSSSTAYMQLSSLTSEDSAVYYCARPHGYPFGYWGQGTTLTVSS
VL: ENVLTQSPAIMSASLGEKVTMSCRASSSVNYMYWYQQKSDASPKLWIYYTSNLAPGVPARFSGSGSGNSYSLTISSMEGEDAATYYCQQFTSSPYTFGGGTKLEIK
notes: also called Clone # 26
Take B4: the “Uptake pHrodo (MFI)” value in assay [1] came to 35800 MFI. The “EC50 (read off the curve)” value in assay [7] is about 0.01 µg/mL. Also, in assay [3], the Kd turned out to be 12.2 nM. In assay [4], the Kd came out at 184 nM, the koff came out at 0.0123 s⁻¹ and the association rate constant (kon) stood at 66700 M⁻¹ s⁻¹.

Source of the values: patent US20260055194A1 (LYCIA THERAPEUTICS, published 2026).
